Experimental data as given in PMC6422423, “Constitutively active BRS3 is a genuinely orphan GPCR in placental mammals” (PLoS Biology, 2019).
Where no end group is shown, it is not given here.

Columns and labels:
[1] = molecular target: spotted gar bombesin receptor subtype-3 (spotted gar (Lepisosteus oculatus)); test: radioligand binding; displacement of 50 pM [125I]-Tyr42-GRP by unlabeled peptide on disaggregated transfected HEK293 cells; 1 h at 21°C; 24.5 mM HEPES pH 7.4, 98 mM NaCl; bound tracer separated by centrifugation
Chain of spotted gar bombesin receptor subtype-3 (spotted gar (Lepisosteus oculatus)) (main, as listed by the source): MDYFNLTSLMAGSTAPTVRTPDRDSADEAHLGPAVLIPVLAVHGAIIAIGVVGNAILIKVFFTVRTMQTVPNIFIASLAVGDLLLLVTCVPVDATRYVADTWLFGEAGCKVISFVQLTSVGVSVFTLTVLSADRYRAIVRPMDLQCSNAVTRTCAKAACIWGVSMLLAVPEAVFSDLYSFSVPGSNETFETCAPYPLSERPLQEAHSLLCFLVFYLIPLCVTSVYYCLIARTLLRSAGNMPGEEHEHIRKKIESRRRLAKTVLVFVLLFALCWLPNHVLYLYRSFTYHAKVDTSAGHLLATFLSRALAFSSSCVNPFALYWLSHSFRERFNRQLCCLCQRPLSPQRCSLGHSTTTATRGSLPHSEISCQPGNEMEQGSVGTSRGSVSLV

[2] = molecular target: aardvark bombesin receptor subtype-3 (aardvark (Orycteropus afer)); test: as above
Chain of aardvark bombesin receptor subtype-3 (aardvark (Orycteropus afer)) (P32247 other isoform, or with tags, fused parts or gaps): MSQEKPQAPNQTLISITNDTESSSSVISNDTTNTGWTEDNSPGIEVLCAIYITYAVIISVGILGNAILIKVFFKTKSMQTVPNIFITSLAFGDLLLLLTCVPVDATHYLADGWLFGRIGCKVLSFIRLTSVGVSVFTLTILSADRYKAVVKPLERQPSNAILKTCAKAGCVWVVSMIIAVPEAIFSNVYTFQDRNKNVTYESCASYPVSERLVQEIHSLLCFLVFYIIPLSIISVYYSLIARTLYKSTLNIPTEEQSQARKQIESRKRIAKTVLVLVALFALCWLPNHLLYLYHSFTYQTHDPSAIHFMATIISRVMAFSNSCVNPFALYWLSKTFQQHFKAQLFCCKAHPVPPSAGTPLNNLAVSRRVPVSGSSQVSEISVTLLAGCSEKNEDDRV

[3] = molecular target: turtle bombesin receptor subtype-3 (turtle (Chrysemys picta)); test: as above
Chain of turtle bombesin receptor subtype-3 (turtle (Chrysemys picta)) (main, as listed by the source): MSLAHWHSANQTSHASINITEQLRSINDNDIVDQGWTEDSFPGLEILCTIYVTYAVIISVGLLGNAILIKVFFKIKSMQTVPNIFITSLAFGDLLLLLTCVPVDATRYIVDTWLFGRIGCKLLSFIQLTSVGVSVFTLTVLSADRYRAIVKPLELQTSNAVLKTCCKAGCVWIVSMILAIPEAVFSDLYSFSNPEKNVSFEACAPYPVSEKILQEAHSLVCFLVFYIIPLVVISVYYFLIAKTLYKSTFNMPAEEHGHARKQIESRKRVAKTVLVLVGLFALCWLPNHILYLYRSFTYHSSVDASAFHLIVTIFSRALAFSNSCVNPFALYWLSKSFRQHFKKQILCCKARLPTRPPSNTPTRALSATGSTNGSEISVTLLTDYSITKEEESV

[4] = molecular target: chicken bombesin receptor subtype-3 (chicken (Gallus gallus)); test: as above
[5] = molecular target: spotted gar bombesin receptor subtype-3 (spotted gar (Lepisosteus oculatus)); test: radioligand binding; displacement of 50 pM [125I]-Tyr-NMB by unlabeled peptide on disaggregated transfected HEK293 cells; 1 h at 21°C; 24.5 mM HEPES pH 7.4, 98 mM NaCl; bound tracer separated by centrifugation
[6] = molecular target: turtle bombesin receptor subtype-3 (turtle (Chrysemys picta)); test: as above
[7] = molecular target: chicken bombesin receptor subtype-3 (chicken (Gallus gallus)); test: as above

IC50 [1]: 0.17 nM
Ki [2]: > 1000 nM
IC50 [3]: 0.14 nM
IC50 [4]: 0.15 nM
IC50 [5]: 0.54 nM
IC50 [6]: 0.28 nM
IC50 [7]: 0.18 nM
Binder: APLQPGGSPALTKIYPRGSHWAVGHLM (ends and bridges not checked) [gastrin-releasing peptide, unlabeled ligand peptide of the radioligand binding assays]
